This is an account of results in patent US20240166767A1 (SCIRHOM, published 2024).

For the experiment, the target named is T1, endogenous human iRhom1 (RH-30 cells) (human, UniProt Q96CC6 1-855).
T1 construct: RH-30 cells are described as endogenously negative for iRhom2 but endogenously expressing iRhom1; also called iRhom1 endogenously expressed by RH-30 cells
T1 sequence: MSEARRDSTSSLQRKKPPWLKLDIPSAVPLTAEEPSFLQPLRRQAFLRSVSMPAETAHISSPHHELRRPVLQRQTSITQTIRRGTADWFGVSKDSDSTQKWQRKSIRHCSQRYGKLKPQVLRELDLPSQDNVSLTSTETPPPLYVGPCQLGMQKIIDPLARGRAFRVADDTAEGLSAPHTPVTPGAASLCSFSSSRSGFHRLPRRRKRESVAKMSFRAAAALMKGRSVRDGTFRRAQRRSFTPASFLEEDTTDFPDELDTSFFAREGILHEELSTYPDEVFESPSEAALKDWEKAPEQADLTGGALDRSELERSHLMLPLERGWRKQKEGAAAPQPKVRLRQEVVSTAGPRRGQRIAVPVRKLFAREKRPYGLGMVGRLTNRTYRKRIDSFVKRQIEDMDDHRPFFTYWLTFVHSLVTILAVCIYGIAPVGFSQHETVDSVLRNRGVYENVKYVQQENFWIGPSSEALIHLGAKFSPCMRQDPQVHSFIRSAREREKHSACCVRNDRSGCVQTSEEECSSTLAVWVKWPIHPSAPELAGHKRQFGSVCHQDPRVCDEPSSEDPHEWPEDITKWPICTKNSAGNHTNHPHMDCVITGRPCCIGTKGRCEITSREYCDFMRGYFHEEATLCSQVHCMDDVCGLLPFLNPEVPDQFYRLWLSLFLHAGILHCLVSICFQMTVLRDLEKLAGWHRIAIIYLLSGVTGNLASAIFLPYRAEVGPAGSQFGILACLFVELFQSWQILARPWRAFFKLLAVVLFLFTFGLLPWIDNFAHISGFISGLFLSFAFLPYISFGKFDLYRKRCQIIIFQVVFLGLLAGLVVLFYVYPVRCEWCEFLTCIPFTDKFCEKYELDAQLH
The experiment can be described thus: FACS on RH-30 cells (endogenously negative for iRhom2, endogenously expressing iRhom1). As to the method:
In brief, human RPMI-8226 cells (Deutsche Sammlung von Mikroorganismen und Zellkulturen, Germany), THP-1 cells (American Type Culture Collection, USA) and RH-30 cells (Deutsche Sammlung von Mikroorganismen und Zellkulturen, Germany) were harvested with 10 mM EDTA in PBS, washed and resuspended in FACS buffer (PBS, 3% FBS, 0.05% sodium azide), and seeded in Nunc U-bottom 96-well plates (Thermo Fisher Scientific, USA) at approximately 2×10⁵ cells per well. In order to pellet cells and remove supernatants, the plates were centrifuged at 1,500 rpm and 4° C. for 3 minutes. For primary staining, cells were resuspended in 100 μl per well of either FACS buffer alone (controls) or […] of the antibodies of the invention in FACS buffer and incubated on ice for 1 hour. Afterwards, plates were centrifuged at 1,500 rpm and 4° C. for 3 minutes and washed twice with 200 μl per well of FACS buffer. For secondary staining, cells were spun down and resuspended in 100 μl per well of PE-conjugated goat anti-human IgG F(ab′)2 detection fragment (Dianova, Germany) diluted 1:100 in FACS buffer. Protected from light, the cell suspensions were incubated on ice for 1 hour. […] Finally, cells were resuspended in 150 μl per well of FACS buffer and analyzed using a BD Accuri™ C6 Plus flow cytometer (Becton Dickinson, Germany).

B1: humanized antibody 42-B-02 (antibody, V domains shown)
VH: QVTLRESGPALVKPTQTLTLTCTFSGFSLSTFGRGVGWIRQPPGKALEWLAHIWWDDEKYYNSALKSRLTISKDTSKNQVVLTITNMDPVDTATYYCARIQNYGSNYWYFDVWGQGTLVTVSS
VL: AIQLTQSPSSLSASVGDRVTITCRASSRISYMFWYQQKPGKAPKVLIYDTSNLASGVPSRFSGSGSGTDYTLTISSLQPEDFATYYCQQWNSYPLTFGQGTKLEIK
notes: Tested as whole humanized antibody from transient expression of heavy chain/kappa light chain pairs in CHO cells, detected with anti-human IgG; the general methods speak of human IgG1/Kappa; also called clone 42-B-02
Regarding B1, the binding result is “no binding (tested: 3 µg/ml)”.
